Earlier results as cited in paper PMC3518592.

Target: ubiquitin (UniProt P0CG48)

Sequence of Vps9 CUE (P54787 405-451): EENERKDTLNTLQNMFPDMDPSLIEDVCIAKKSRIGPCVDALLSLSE

## Vps9 CUE (from UniProt P54787)
  Kd: 20 µM
